According to publication PMC12567329, “Chloroplast Hibernation-Promoting Factor PSRP1 Prevents Ribosome Degradation Under Darkness Independently of 100S Dimer Formation” (Plants, 2025):
Each block holds one molecule with its values, some of them ahead of it.

How the values were obtained:
Experiment in all cases: SEC-MALS; Superdex 200 5/150 GL; 100 mM Tris-HCl pH 8.0, 150 mM NaCl, 1 mM EDTA, 10% (v/v) glycerol; 0.15 mL/min; 90 µL of each sample at 1.6 mg/mL injected
[1] = molecular target: Plastid-specific ribosomal protein 1b (PSRP1b) of Physcomitrium patens, mature form (Physcomitrium patens)
[2] = molecular target: Plastid-specific ribosomal protein 1a (PSRP1a) of Physcomitrium patens, mature form (Physcomitrium patens)
[3] = molecular target: the molecule itself

stoichiometry N [1]: 2
Molecule: Plastid-specific ribosomal protein 1b (PSRP1b) of Physcomitrium patens, mature form (natural protein)

stoichiometry N [2]: 2
Molecule: Plastid-specific ribosomal protein 1a (PSRP1a) of Physcomitrium patens, mature form (natural protein)

B1: Bacillus subtilis long-form hibernation-promoting factor (BsHPF) (natural protein, UniProt P28368 1-189, looked up)
chain: MNYNIRGENIEVTPALKDHVERKIGKLERYFDHSVDADVNVNLKFYNDKESKVEVTIPMTDLALRSEVHNEDMYNAIDLATNKLERQIRKHKTKVNRKFREQGSPKYLLANGLGSDTDIAVQDDIEEEESLDIVRQKRFNLKPMDSEEAILQMNMLGHNFFVFTNAETNLTNVVYRRNDGKYGLIEPTE
notes: Long-form hibernation-promoting factor (LHPF) of Bacillus subtilis, amplified from genomic DNA; predicted mass of the construct 24.2 kDa; Dimeric control protein of the SEC-MALS experiment; also called Bacillus subtilis LHPF
stoichiometry N [3]: 2
